# Assay: soluble on expression in E. coli; label from the status in PepcDB or PDB records
row,Sequence,soluble on expression in E. coli
1,MQIDVDPQEDPQNAPDVNYVVENPTLDLEQYAASYSGLMRIERLQFIADRCPPLRVEALKMALSFVQRTFNVDMYEEIHRKLSEATRELQNAPDAIPESGVEPPPLDTAWVEATRKKALLKLEKLDTDLKNYKGNSIKESIRRGHDDLGDHYLDCGDLSNALKCYSRARDYCTSAKHVINMCLNVIKVSVYLQNWSHVLSYVSKAESTPEIAEQRGERDSQTQAILTKLKCAAGLAELAARKYKQAAKCFLLASFDHCDFPELLSPSNVAVYGGLCALATFDRQELQRNVISSSSFKLFLELEPQVRDIIFKFYESKYASCLKMLDEMKDNLLLDMYLAPHVRTLYTQIRNRALIQYFSPYVSADMHKMAAAFNTTVAALEDELTQLILEGLINARIDSHSKILYARDVDQRSTTFEKSLLMGKEFQRRAKAMILRAAVLRNQIHVKVKSLGCEGMGGTHTASTEPSLSTAVSS,not soluble
2,AHHHHHHGSRIVVIGSGTAGSNFALFMRKLDRKAEITVIGKEETMQYSPCALPHVISGVIEKPEDVIVFPNEFYEKQRIKLLLNTEAKKIDRERKVVVTDKGEIPYDKLVIATGSKAFVPPIKGVENEGVFTLKSLEDVRKIKEFIKKRNPKNAVVIGAGLIGLEGAEAFAKLGMKVTVVELLEHLLPTMLDKDIAKIVEENMRKYGVDFKFGVGVDEIIGDPVEKVKVGEEEIDADIVLVATGVRANVELAKEAGLEVNRGIVVNEYLQTSDPDIYAIGDCAEVIDAVTGKRTLSQLGTSAVRMAKVAAENIAGRNVKFRPVFNTAITEIFDLEIGAFGITEERAKKEEIEVVVGKFRGSTKPEYYPGGKPIVVKLIFRKEDRRLIGAQIVGGERVWGRIMTLSALAQKGATVEDVVYLETAYAPPISPTIDPITIAAEMAMRKL,soluble
3,MGSDKIHHHHHHMTIDPIKSTTLAQFDAAEQTALAQLALKVQHAFVTGAGGFLGKAICLRLLAAGIKVTGFARGHYPELEALGVVMLQGDLVNKDQLQQAMQGCDIVFHVASKAGVWGDRDSYFCPNVKGAANVIAACKTLKINKLVYTSTPSVTFAGQDESGIDESTPYATSFLNYYAHSKAIAEKMMLDANQVGDVSVENTAVTQVTQVTQATTATISDNNLATTQVAIPNTSQVTAPYALKTVALRPHLIWGPGDPHLVPRVLARCRLDKLKLVGHEDKLVDTIYIDNAAYAHVLAALELCQAKPKCQGKAYFLSNDEPITMAKMLNLILACDALPPVTKRVPQSVAYVAGAVLETVYFLLKKQEEPMMTRFVARQLSCSHYFDISAAKRDLGYRALVSINEGMARLKASL,not soluble
4,MGYRRFLQLVAHEFFHLWNVKRIRPKALEQFDYEAENYTPSLWFSEGATSYYDLLLPLRAGLYGVDSFLEALGKDLSRYLTTPGRKVQPLAESSFDAWVKLYRRDAYSDNQQMSYYLKGQLVCWLLDLEIRNHQPDLEHHHHHH,soluble
5,MAPLGASPRLVLLFSGKRKSGKDFVTERLKSRLGGNICALLRLSGPLKEEYAREHGLDFQRLLDASTYKETYRRDMICWGEQKRQADPGFFCRKIVEGVSQPIWLVSDTRRTSDIQWFQEAYGAVIQTVRVVASEQSRQQRGWVFTLGVDDAESECGLDNFGNFDWVIENHGDEQCLEDQLEHLLGFIQAKL,soluble
6,MKRYVFMLSDGTGITAETLGNSLITQFENIQFEKITIPYIDSTHRAESVVLRINQCFSEQGTKPLVFMTLVDPEIRQAIKKAHACVFDLFSIFIGPLENELEEKSSYTVGRTHGVANVKSYSHRIEAIDFALSHDDGIKTRGYDKADIILIGVSRCGKTPSCLYMALQYGILAANYPFTEEDLVGFRLPEVLRPYKQKLFGLTIDAQRLQQIRSERRPNSKYASAEQCRLEVTEVEAMYQRENIPYINSTKYSIEEISTKVLAIAGLQRKILEHHHHHH,not soluble
7,MGSDKIHHHHHHMDKLRAIQLFVRLADLGSFTRVAEQVNSSKSMISKEISRLEADLGTRLLHRSTRSVQLTHVGEGYLQRAREILSKLDDADNFVQDLQQNLRGKLKINAPMALGITDLSHLFADFMKANPEIELDIHLGDESVDLVEQGFDLGFRASSQPIDSNYVGRPLTRFTYKVCVSPDYLKMHSTITHPRDLKEHNCFIYSYFQGKNVWPIEGGIEVKGSLRVNNTMFMMESIKQGLGIGFIPDFVCQQAINSGQVVEVLADSKKSMLTLYALYPVRNFVPPKLVQCIEYLEQWFADKDKP,not soluble
8,MKELRRFHLDHDFKIRDWVVVLNEIVVSRWDEVRREKVYRIGFQEFDCSDGWDIEREDGTIATVVFVKSSFDFFVWSK,not soluble
9,MGSDKIHHHHHHMANVIKLHKGLNINLKGKPAQEFFDVKQPDIYAIVPDDFHGVTPKVVVKEQEYVTAGGTLFVDKNHPEVKFVSPVSGVVTSVERGERRKVLSISIAAAKEQDYEEFGKKDVSTLTGEQVKAALLEAGLFSFIIQRPYIVVADPNAKPKGIFVSAFDTNPLAADFEFVLKGQEKDFQTGLDALAKMAKTYLNISVEQKSPALTNAKNVTVTAFDGPNPAGNVGVQINHISPINKGETVWTLRAEEVIFIGRLFNTGRVDLTRTIALTGSEVKKPAYCKLKVGALLTDIFAGRVNGGKNLRYINGNVLTGTLVKPNGFLGAHATSLTVIPEGDDRHEFLGFIMPRTDQYSANRSYFSWLCGNKEYTLDARIKGGERHMIMSGEYDKVFPMSIFPEYLIKAIIAGDIDRMEALGIYEVAPEDFAVCEFVDSSKLELQRIVRQGLDMLRKEMC,not soluble
10,LPLCDSLIIWLQTFKTASPCQDVKQLTNGVTMAQVLHQIDVAWFSESWLSRIKDDVGDNWRIKASNLKKVLHGITSYYHEFLGQQISEELIPDLNQITECADPVELGRLLQLILGCAVNCEKKQEHIKNIMTLEESVQHVVMTAIQELMSK,soluble
11,GVVIREALSSSNAVPAIDFDRKELIDIPAYQGPGKNVVRPPVDLDPSYNPFKETGLTEPIRSSRRQSPDMGWNELFKQFEAKRDAEKMAEPPIRSEELFASTDFTPSAVSATPSTDMLCYVHRGRYLVTTLSRGLALVDFHRAHKRILYDRFMADESRRHIEQQQLLFPELLEFNPSDASAVKAAVDELQSVGFDLSPLGVSSYSLLAAPVQIIDCAADVVRDVIHTTLEDGRSSHEQMLELIATQIAEYQAIPCGKTPTAEEASDLLAELFASNDSTYTPDGKLIVSIIEEADIARRFE,not soluble
12,MAHHHHHHMAANCIFCKIIKGDIPCAKVAETSKALAFMDINPLSRGHMLVIPKEHASCLHELGMEDAADVGVLLAKASRAVAGPDGSMQYNVLQNNGSLAHQEVPHVHFHIIPKTDEKTGLKIGWDTVKVASDELAEDAKRYSEAIAKI,soluble
13,MSLAAFQIANKTVGKDAPVFIIAEAGINHDGKLDQAFALIDAAAEAGADAVKFQMFQADRMYQKDPGLYKTAAGKDVSIFSLVQSMEMPAEWILPLLDYCREKQVIFLSTVCDEGSADLLQSTSPSAFKIASYEINHLPLLKYVARLNRPMIFSTAGAEISDVHEAWRTIRAEGNNQIAIMHCVAKYPAPPEYSNLSVIPMLAAAFPEAVIGFSDHSEHPTEAPCAAVRLGAKLIEKHFTIDKNLPGADHSFALNPDELKEMVDGIRKTEAELKQGITKPVSEKLLGSSYKTTTAIEGEIRNFAYRGIFTTAPIQKGEAFSEDNIAVLRPGQKPQGLHPRFFELLTSGVRAVRDIPADTGIVWDDILLKDSPFHEEGGSHHHHHH,soluble
14,MTTVSNIHHASKPRLNTLLVTARDSPYDTTLPARTPVDFCRPGSQWRVMDIDLVLAPVDGSDQSERAAEYAIAVAERYDADLHLLFVIDERLHQDIDSGDVSATAIAEEHQAFTESIRDRFRDAHDGVFETSSATAFSETRLMQTPGSVVLDVAEDLDSDFIVVPREEGSEEAVGRAAIYVIEYASQPVLTV,not soluble
15,MGSDKIHHHHHHMSLRPYREIARRKSRQIHVGSVAVGGDAPISVQTMTNTLTTDVKGTLEQIRRAADAGADLVRVSCPDEDSTKAFKQIAKESPVPLIADIHFHYKRGIEAAEAGAACLRINPGNIGSHERVREVVKAAKDHGCSMRIGVNAGSLDKHLLDKYGEPCPEALVESALEHAKLLEDNDFFEFKIAVKASDVFLAVAAYQGLAKACDYPLHLGITEAGGLIGGTVKSSIGIGSLLWQGIGDTLRVSLSADVTEEVKVGFEMLKALDLRHRGVRIVSCPSCARQGFDVIKTVETLENRLSHVRAPVTLSILGCVVNGPGEARETMVGITGGGSDNHKVYIGGSPDHNVDGKSMVDHIVELVEARAAEIEAAKAGGK,not soluble
16,MADTGEKDTETTASGTDGHSKEALAVISMLHECGIQEFDPRVVSMLMDVQYAVTSKILQMSSGLSRHAEKAQIEAEDVQTAADMLGVLTTNAPDREKILQLANDKNQQPLPQIRHNYGLKLPNDRFCQLQQNFVYKADDSYQPMEMQQVTHQPHIIEPPTQVLRPEHVQNMLKRRAPDDDFDS,not soluble
17,MTTVTVTTEIPPRDKMEDNSALYESTSAHIIEETEYVKKIRTTLQKIRTQMFKDEIRHDSTNHKLDAKHCGNLQQGSDSEMDPSCCSLDLLMKKIKGKDLQLLEMNKENEVLKIKLQASREAGAAALRNVAQRLFENYQTQSEEVRKKQEDSKQLLQVNKLEKEQKLKQHVENLNQVAEKLEEKHSQITELENLVQRMEKEKRTLLERKLSLENKLLQLKSSATYGKSCQDLQREISILQEQISHLQFVIHSQHQNLRSVIQEMEGLKNNLKEQDKRIENLREKVNILEAQNKELKTQVALSSETPRTKVSKAVSTSELKTEGVSPYLMLIRLRK,not soluble
18,MGSDKIHHHHHHMAIIKASTAASVAELTTDIDQQLPQLKAKPFSHELLTTSILTMLGTAAFVGIHHRYRKQHLADARVQDYVRGIYSQMNALQSASHSRSMLRHFRYSCQQAASTWQQAYRLPMNDKQSNSSGLATNNFSAMHTTTMLARPVCWVSGVASMPKDISLINEDNENDFGVVGIDADREVVWQTTMPERVHDIVVQPVFRYEDNTVSNHLNHRQSRDVVVMGRRPSEKFWVLDTATGQVRFAINAATNRHFYGHACYSLDGSKLYVTENDTLSLDGKIGAYAVDKGYQKIAEFDSYGIGPHELIMHPDGETLIIANGGIKTEQASREELNLDTMHPSLVYLNRHDGSLLEQITPEHNQMSVRHLAMHDDGTVMIGIQFQGEKHINVPLVLTHKRGDIKLTPLTMPNNQWQRFHQYIASVAVDSKCNLLCVTTPIGGCAAIFDLTTRALINSVSLPDCAGASIYSRKTGSGKGSVDAEQKSGFIVSDGQGQLTRLSVNDLTILDSELNSDAIAKNNTIGTDIKCHMMSFDNHLQAL,not soluble
19,MAIVSFKHKGLKLFYTTGSTKAIRPDHVKKLRVILTALTSATCPEMLKAPAFKMHPLKGELTGYYSIWVNGNWRVTFRFIGTDVELVDYQDYH,not soluble
20,KTQGFLTMSRRRISCKDLGHADCQGWLYKKKEKGSFLSNKWKKFWVILKGSSLYWYSNQMAEKADGFVNLPDFTVERASECKKKHAFKISHPQIKTFYFAAENVQEMNVWLNKLGSAVIHQESTTKDEECYSESEQEDPEIAAETPPPPHASQTQSLTAQQASSSSPSLSGTSYSFSSLENTVKTPSSFPSSLSKERQSLPDTVNSLSAAEDEGQPITFAVQVHSPVPSEAGIHKALENSFVTSESGFLNSLSSDDTSSLSSNHDHLTVPDKPAGSKIMDKEETKVSEDDEMEKLYKSLEQASLSPLGDRRPSTKKELRKSFVKRCKNPSINEKLHKIRTLNSTLKCKEHDLAMINQLLDDPKLTARKYREWKVMNTLLIQDIYQQQRASPAPDDTDDTPQELKKSPSSPSVENSI,soluble
21,MIKLGWASFSNTEFAQDIFIKFANQFYKQDDAGTILFELKKTLGVNQLDEIEKNKKVIIVNQFQNSLGKFLLFNKENTKRINSLANEHISSFLKKIFRLSGFKDMLIDVQHHKKLQKCLLREIHLLVCLINSNQFSDELMQIIEWYQYLKKHSSKLFVITASSDKKPVIEPTINEYKAIFGEYLSSFHLDLKNNQSNDLFQKLLDQIKIKATSKTSLR,soluble

# — the DeepSol protein solubility set
